Test results published in patent publication US20170269069.

Test system: recombinant histone H3, wild type

B1: recombinant USP39 (enzyme, UniProt Q3TIX9 1-564, looked up, species assumed)
Ubiquitin carboxyl-terminal hydrolase 39: MSSRSKRQSHGSTRGKRESESRGSSGRIKKERDREKEPEAASSRGSPVRVKREAEPAAREVPAPALPVVRVKREREADEDSEPEREVRAKNGRVDSEDRRSRHCPYLDTINRSVLDFDFEKLCSISLSHINAYACLVCGKYFQGRGLKSHAYIHSVQFSHHVFLNLHTLKFYCLPDNYEIIDSSLEDITYVLKPTFTKQQIANLDKQAKLSRAYDGTTYLPGIVGLNNIKANDYANAVLQALSNVPPLRNYFLEEDNYKNIKRPPGDIMFLLVQRFGELMRKLWNPRNFKAHVSPHEMLQAVVLCSKKTFQITKQGDGVDFLSWFLNALHSALGGTKKKKKTIVNDVFQGSMRIFTKKLPHPDLPAEEKEQLLHNDEYQETMVESTFMYLTLDLPTAPLYKDEKEQLIIPQVPLFNILAKFNGITEKEYKTYKENFLKRFQLTKLPPYLIFCIKRFTKNNFFVEKNPTIVNFPITNVDLREYLSEEVQAVHKNTTYDLIANIVHDGKPSEGSYRIHVLHHGTGKWYELQDLQVTDILPQMITLSEAYIQIWKRRDNDETNQQGA
modifications: His tag
H3NT protease activity (in vitro H3NT cleavage assay, Western blot with the H3CT antibody): only rMMP-9 possessed H3NT protease activity

B2: recombinant DIM1 (enzyme, UniProt P83877 1-142, looked up, species assumed)
Thioredoxin-like protein 4A: MSYMLPHLHNGWQVDQAILSEEDRVVVIRFGHDWDPTCMKMDEVLYSIAEKVKNFAVIYLVDITEVPDFNKMYELYDPCTVMFFFRNKHIMIDLGTGNNNKINWAMEDKQEMVDIIETVYRGARKGRGLVVSPKDYSTKYRY
modifications: His tag
H3NT protease activity (in vitro H3NT cleavage assay, Western blot with the H3CT antibody): only rMMP-9 possessed H3NT protease activity
